Results on seven molecules are retold here after publication PMC6461199.

The target of this data set is TDP-43 N-RRM1-2 (UniProt Q13148 1-269). The experiment in a line: BLI.
TDP-43 N-RRM1-2, sequence (Q13148 1-269): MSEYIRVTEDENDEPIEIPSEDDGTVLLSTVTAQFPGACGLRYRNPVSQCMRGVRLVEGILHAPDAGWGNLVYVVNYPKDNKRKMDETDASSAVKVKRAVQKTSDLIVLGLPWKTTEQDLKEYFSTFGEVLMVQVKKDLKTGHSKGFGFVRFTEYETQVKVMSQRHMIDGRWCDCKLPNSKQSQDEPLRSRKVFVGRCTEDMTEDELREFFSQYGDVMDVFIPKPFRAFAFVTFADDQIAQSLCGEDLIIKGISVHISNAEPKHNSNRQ

The term Kd denotes the constant that tells how readily two partners part at equilibrium. Low values mean a tighter complex, high ones a looser complex. In turn, GUGUGAAUGAAUGUGUGAAUGAAUGUGUGAAUGAAU (ssRNA) [RNA36] came in with a Kd of 22 nM.
Consider GUGUGAAUGAAU (ssRNA) [RNA12], for which the Kd worked out at 6.3 nM.
The molecule AAGUGUGGUAUA (ssRNA) [RNA12S2] registered an equilibrium dissociation constant (Kd) of 75 nM.
As to UUAUACCUACCA (ssRNA) [NegRNA12S1], binding was put at a Kd of 1650 nM.
In the case of CUCACAUUAUCA (ssRNA) [NegRNA12S2] it was 1340 nM; in that of UAGAGUAUGAUG (ssRNA) [RNA12S1], 60 nM; in that of AUUCAUUCACAC (ssRNA) [NegRNA12], 1900 nM.
